Measurements as given in publication PMC5487381, “Thioredoxin A Is Essential for Motility and Contributes to Host Infection of Listeria monocytogenes via Redox Interactions” (Frontiers in Cellular and Infection Microbiology, 2017).

Molecular target: T1, PrfA, the central virulence regulator of Listeria (Listeria monocytogenes EGD-e, UniProt P22262 1-237)
T1 construct: PrfA, virulence regulator of the Crp/Fnr family, L. monocytogenes EGD-e, full-length ORF; The methods describe the recombinant proteins in general, not PrfA by name
T1 sequence: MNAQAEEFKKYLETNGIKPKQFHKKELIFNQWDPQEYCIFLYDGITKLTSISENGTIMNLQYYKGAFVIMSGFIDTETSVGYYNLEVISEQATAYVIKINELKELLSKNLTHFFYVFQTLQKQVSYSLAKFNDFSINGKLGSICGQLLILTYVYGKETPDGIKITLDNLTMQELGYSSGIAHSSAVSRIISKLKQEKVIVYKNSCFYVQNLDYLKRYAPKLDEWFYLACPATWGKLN
Assay: ITC; TrxA, TrxAox or TrxA active-site mutants (80-200 uM) in the syringe, PrfA, MogR, GmaR or MogR and GmaR (8-20 uM) in the cuvette; 25 C; 25 mM Tris-HCl pH 7.5, 100 mM NaCl; 15 uL injections, 300 s spacing; 1:1 binding model
Conditions: both partners purified

B1: Listeria monocytogenes thioredoxin A (TrxA) (enzyme, Listeria monocytogenes EGD-e, UniProt P0A4L3 1-103, looked up)
chain: MVKEITDATFEQETSEGLVLTDFWATWCGPCRMVAPVLEEIQEERGEALKIVKMDVDENPETPGSFGVMSIPTLLIKKDGEVVETIIGYRPKEELDEVINKYV
notes: Thioredoxin A (TrxA, Lmo1233) of L. monocytogenes EGD-e, full-length ORF; pET30a(+) may add further vector-encoded residues between the His tag and the ORF; also called Lmo1233
B1: binds.
